In general, Kd refers to the equilibrium constant for the complex coming apart. Low readings indicate tighter binding, high ones weaker binding.

This note sets out measurements from PMC7595577.

This experiment has as its target biotinylated CD16 (UniProt P08637). The experiment in a line: BLI. In general terms: BLI is a label-free optical method that tracks binding on a fibre tip over time.

B1: QA255.072 IgG (antibody, V domains shown)
VH: QVQLIQSGAEVRKPGSSVKVSCKAVGATFHNYAVSWVRQAPGQGLEWMGGIIPIRGLANQEPRFQGRLTITADESTGAIYMDLSSLRSDDSAVYYCARHYDDTSGFFYGAFDIWGQGTTLIVSS
VL: DIQMTQSPPSLSASVGDRVTISCRASQGIGNSVAWYQQKPGKAPKLLILAASSLRSGVPSRFSGSMSGTDFTLTISGLQPEDVATYYCQKYNSAPWTFGQGTKVEIK
B1: the Kd was 4.9 µM.
